Assay: soluble on expression in E. coli; label from the status in PepcDB or PDB records
With “MAHHHHHHMKGNKGANIAYPDKYHKVTEFFDREYGDLETCTKLNDCQKLLFYALRQQVEHGPCTSGAPFIWQVRERAKHDAWKQLGAMTKFEAMVHFVTHLEECIGGNVDWGEKLRDLNGMRDQQRVGVENGTGESNANEQTERGVSEAHWDADVQAHLQPSAENIEYLAREVMRLRGELQQVRPNRVVPTPIVVPPRKPIDYVSTKNIVPPARTLATVATRTALLNAQTTNNLVERQPQGWGEWFGL” the “soluble on expression in E. coli” value was “not soluble”. For “MAHHHHHHMKKKVELKFLGGLESYLEDKSKNVVTLEIESEKLSFENLIAYIRNHILVDRKDVFADHVLCDGTEFCQVVVDHVERKNYNLNEKAKIKPGIIVLINEYDWEIMHMYEYQIRDGDKLCFLSTLHGG”, the “soluble on expression in E. coli” value was “not soluble”. With “MAHHHHHHMKLYSLAIVKPYPSGVEKQPVICSQAIDVSSFGFFQRNSAREFIVFLTRTVSNRVAKGVKTQITENGNVVFAHATFDGLVALAISDVEYNSRVAFTLLGDLVQQFQTTFRGKYDLVDGKEDNFLSWPHLTETLEKYQKPEEQDKILKIKRDIEDTKVIMYNAIDQIIERGQKIDDLVAQSEDLGMASKTFYKQAKKTNSGCCTVM” the “soluble on expression in E. coli” value was “soluble”. For “MAHHHHHHMKPTPLRGQPGLSRNGEGHNDRATSAASHLWARGARTQSPRRGQKESIATRTAVNNGGGPTHAATTRRSAQASRRTSTRYFKLPDAIAEKGEGAFSPTEPDCGATVLRHPASGRRHEEGEQGGSGIVCDVGVGAEKVAGGRLTTLRRTRGQPNKEASRTAFSMATDDVAPPTRLQYARMPRPMSQMNRTPLGVAVLGLQKIAARSETKRTRPLKRKRRINLPAAGPNGSDGLHSDLRG”, the “soluble on expression in E. coli” value was “soluble”. With “MAHHHHHHMKTKVELKFLGGLESYLANKSKNYVSLEIESEEFNFENLIAYIRNHIIVDRKDVFSDFVMSDGNVKSCNVMIDDKEYSNYNLSDKGKIKPGIIVLINEYDWEILDTYTYKIKNNDKICFLSTLHGG” the “soluble on expression in E. coli” value was “soluble”. For “MAHHHHHHMKYMPQRPCIGICQGCWTVQLGGVNQYIQIWRYENLKHRYDCRKQVEQDQEWLRTYVKPADDMMISKSNTLLRLVYREGNASTQSYKYLMQVSPHKEVELSGPSATLAATFQVIVGEEEGKYIHLVKGHKLDDVIPVTPTLGCSSKIMGPVRWSSTMNCLWR”, the “soluble on expression in E. coli” value was “not soluble”. For “MAHHHHHHMLKACLPRHLRVTPLLRVWAAEEDDANAPPTTFKNVKPGRLLRLWRQIRQRAWVAFTWDEEWTSPGSEGYLHQQRLEQVCFAPLSAYGMVPGSYCDPLLYNTKNTSPFRWHVANTSSDIVGHWYMEADEIFRIKDWQPKNPDDPTEMFPRPPQQILKWDETVDEHGNRTFRYKYRYDFMGPTGMWEAYPRYPFSHLYLNGQDHHGRAEGYGFKQGHLLRCSEEEEEVLRRIMEEEDKEWEMVKRTEVVQEPWSYPGKIRPQDFNGAVERAKARFREQIKQGKETDPSEDPDYDLVQAGEYVEPRDGPRAEWRHLWTSNRAKGEPLPYQVTFNDGITFEDNEEKPPVHPASHYEVKPKEAPYKKYEEQDTKEADEKQKKLKEQWEKSFEESISRHEKTVGDGKTSGGNSDSRSSGSAADSGAKEPPK”, the “soluble on expression in E. coli” value was “not soluble”. With “MAHHHHHHMLKCVSRVFLGAKTVPLNPHVPFKLHTAGRDDLPPIPTTATYEPEKIKENLAMMIRIRRVEALADQSYKLKKIRGFCHLCIGQEAIPVGMENVLSRGDPVVTGYRDHGLFMTRGGTIEELFAELFGREGGCSKGKGGSMHMYRVKENFYGGNGIVGAQAPLGAGLAWRYALENRDKPSNVAVTFYGDGAANQGQVFEAMNIAALQRIPVIFCCENNHYGMGTREDRAAYQPQMYRRGDYIPGLRVDGMDVLAVQEGTRWAKEWCLAGKGPVVLEMDSYRYMGHSMSDPDSQYRTKNDIQEVRRTRDCIEKMKEFVVSEGIMTVEEIKQMEKDVKKEVDKELPPAEKQAITPLKELFTDIYCGEQYEHRTTQGTVYAKP” the “soluble on expression in E. coli” value was “not soluble”. For “MAHHHHHHMLNALGITSPRHDALIAKFLKAMAVEGGASEATKRDEAVDAARFVYVFSTVWRAAVTHRTPRSPVSTRVSAPPRSPPAAQQHGNSPDGATMRHAYSREVSCRGAPPSHMKAAPATEVGSSGGSGSAVSARSSSSPSAVWSSSEGGEGAAHSHTESASPLTSCGGGDERRSDAAESDADFLRTNISDASSSIPDSSEKPQAGVRSEELSPMSVEPSAGLDPSPEPCNPGEPVIITSARSSVTPRTHHCSPFAAASRLGSASVSRSRRMSSSLRVIPSDSHLLSSTTSRELKRATKRVPGGLMRECTFKPVINSVYEQSPVSFSSTAIVQKRKPASTAPPTFQPNTQQFHQARDSLARWTRQPIKDNSDYRGEAAANPLATGVETAVRRMIAARQQRQRSQSPRPSLQKGSHHSAPAPQSTVRAPVAHPRKPLLYVDVDLPQGQRDRLALYTGDDVQDVAQRFSILHGLSESLCQRLETALTAELCALSVGKAA”, the “soluble on expression in E. coli” value was “not soluble”. In the case of “MAHHHHHHMLNKGFTATKIIGKRCFQWWDNLNTSWKFAIGFSVLFPPLWNYNERRKAREKQVYYNKSIRDYVFFDIAIENKYVGRVLIGLYSDQVPLSVENFIQLAEGYKVKDKYIGYRNTFIHKIYPGIGLVGGNVLNDKEGLSIYGKKFPDENFDMEFVQDGDVALFNEGPHSNSSQFIITFSPMPILHKHNVVIGTVLKGMDIIRMIENVGTKLGNPMYNVKIINCGLYRSLEQDGPPFFNMMHISDKGNKNIISKKEFESLSEQQRQSLMEEIGKSEKRR”, the “soluble on expression in E. coli” value is reported as “soluble”. With “MAHHHHHHMLNRSRLRRVWLGGTAANTSLGRDVMPSTGKYINIVSPTDVAANISAGAMPPEANVAAALPVPRIQYSKWNRALRSDVYDELLKLPLRYKLHDFAKLCPPQRCQEEPEAVGVVGRDSAVGYLPPLGPADPLDTIPFFVHRSSNGVLPGKVFSMHPRNLMPAFYLRIQQVEGDMFRFEEELLKIFPTKKIFVRSHSIYVYNVALDGRMVLHHWLLGLGF” the “soluble on expression in E. coli” value was “not soluble”. In the case of “MAHHHHHHMLPRGEQHVSVAGSDDYMDDAASALLSELQQVVVRVSHQMVEERRRAAQQRKQIRALEAIVAEQDAMLDALRTQCDAAQCEKSRLLKSYQQELRWRGADPVQAARRSRDICGTSGTHVSAAQVDNVVQAEFRRLSTIYESCPFSGFDDVSPVVAAVLRSLATQVLQLRGAARNDEAEASDISKDAQPAPVQPHATSSSLRASARGTSTSSLMPAFNRSAPTDGHGKAGVVDRVTPLAALEKRKKASMFAAATAGPNHSPSETAGRTNGEEAELHRVDLDAGRNGDADAAACMASEASASVASSVCEDAASILSDIRARYGL”, the “soluble on expression in E. coli” value is reported as “not soluble”. With “MAHHHHHHMLRNALSCFLEQLELARLTETLPSNIDYAELVAMVQQRLQGAPGKTLGVFEHLRAKEIRLPEPDNPDYAVASMSAPLTVFLFDIEGTTTPLPFVQKVLMPLAESRVEAYMAAHFPADQAFVDLLTAAAERPSSPLAKAQTAYSKAFTDALATSGARDWKDEAANEVTRSDFCAFFHHQIKRGADHAAVKVVQAAIWAEVFAEGKLQSPVFPDVNTFFRFVGGPAMAERTRIALYSSGSVAAQKLVMGHTSYGDLNPFITAYFDPLLVGTKLMPKSYMKIRTLLVEQLDIPPESMHIVFVTDNTSEASAAETSGAVESAILCVRPLNDWITFDTMLSINVPYIMSFTQLMQRNCVVDMAKLVSDTKECIKQHNIS” the “soluble on expression in E. coli” value was “soluble”. In the case of “MAHHHHHHMLRRNIRLRKEYLYLKKVEDEKKKYAEKIKSIKESYDKNKKIRGDLKDEESELRKNMNLYDEKSFDRKVDDEYFFCGLENPRVLITTSRNPSSTLENFAKELKLIIPNSEKINRGSYFIKDILNFARKNNITDVIILHEYKGIPRNLIICHLPFGPTLFCTIKDCKMRCEFNEKIDNISLCTPHLIFHNFHSDLGKRIMNIFKYLFPPVTMRTNKRKMPKHNSQIVKDNKLNKNININTNNNDTNQMDQMDQMNKIKFVTHTTQDDEDNNDHLQIYFKNNEYLNLQKYENNRVIVFFNKNDIIYFRHYNWEKNQTNEIVLKEIGPRFSFVVYKINKETLDSLNEDYEYIYRPFMNSRKALLT”, the “soluble on expression in E. coli” value is reported as “not soluble”. For “MAHHHHHHMLRSPQPRFPQHVPGAYPPQQQQQMPPQPQSQPQMPMNAQPPAQAIQQQLEHQDVVHDTQFDYYGQLLATASSDRTIGIHVVQNGQLQRIATLTGHEGPVWMVSWAHPRFGMALASAGYDHKAIIWKEMSQSSKQWAPVHVIDCHHGSVNAVQWAPETPMVATASSDGTVAVTVFEGGVWRDSLKLSNNSNNIAHAMGATSVSFAPMRPSLGGAVLLASGGCDSQVRLWCLQEGSPMANSFELLEVLEGHTDWVRDVAFAPLCAATRHAVLASCGQDKSVIIHRKPWDQLGALIQERQRSSSTNGPQQYLQKESGGIWERSVVLFEEPVWRLSWSPAEEVLVVTTGDSEVYILRENGEFTQPWLKTPLSEYQSGTR”, the “soluble on expression in E. coli” value was “not soluble”. With “MAHHHHHHMLTNLRFLELQKLLLKRFQIFKNEEITILKKDSMKTILNEWAEFLTKEQKGTNITHIPDEVLQNKKVADILRDDIECRWLVGRINVGNNQESPVGTNDVNSSCSAALARKGTALSKIDQLHFDEYPNLFHYEYPQFPYNYYDKKKMENFYSLLKFPYNDILKISKMIKRDVISPSGNAEEGEILQQGGKAQSEVLESTHVDVVNDDFMNYSSNSYVYAPSEMETSKENYHE” the “soluble on expression in E. coli” value was “not soluble”. In the case of “MAHHHHHHMMLKVRYENFNDLRNDDEMLNISFVAHPCYYSILDLEESELFNKIVYENFCKVAEKVDIYDKNEYLSVYRRHDKKCRELHMLKSWELLKNTYRYKMPVIFKNLKDFDLYNMEKIPFYSINYNKKKKGTKENGFVVRNKKKINIIDKGKCFILDNHMIYSMTPEYIANNISKNILLNTHHIMKGNNILSLKEDDKYVKHQKVNDNPYYFKLRYHYNDDDIYCKDNYSYKRKGISPIKKKRKIEPILYNNKKMDYEEKKRILIYLDPFAGAGGNCNHMNNIFTIGCDINFYRIKQCQHNCNFYNKNVDFILCDFFNLVTHFRKGTIDVIFFSIPWGGPKYKNKKNFELNTEIMDNISIYKCIEVSVELTENLVFYLPRNVCMKELYYLYGYYKELVKNKKCVNYENDDIYKYDRKGEGGKKKKKKKKKKILS”, the “soluble on expression in E. coli” value is reported as “not soluble”. In the case of “MAHHHHHHMMMMRPDAGRRGDRHEVTRSQWEMHNSVITDDAFLFPKMELMEELHKTQPWKKSPRYFQRVKVSVLAALQMMIHAKRGSPNVTCSNGSGVADSSAASMRNEPSRENWFEVMVLMLGHFNEDEMIVTSAFALPVDASEVECSMNDASQLYMLDFLQYHQRGGTQEGCIGWYHSHPGYTCFLSGTDVNTQQLGQTAQDPWLAIVVDPVRTISTGKLDMKAFRTFPEKYVAEQQGTSQHTQGKHWEGSTTSTWVPSERIREYGVHAHRYYELPITLVRSKDDEAQLECLWSRYWALTFCSNLFTANRKLMTKQIHQLAEVLESGVASRHQTMMKGDGYLPGHKLGSQHQRKGGGAVDDETPDGVEAFKQRSLHVRYLTSSLTSEAASGGNTAGGQKFRLSSMIFLLVLARVFLSF”, the “soluble on expression in E. coli” value is reported as “not soluble”. With “MAHHHHHHMMSRFETSPRDRRYNSAVRSSLFSFVLRRRRNLHDKKKPPLSANGPLTSVVHPRARNHLPDEVNLTTTLVRSCFCINIAPLPARSCASYSPRCSEQTVSRFFPHPFTFRASAIRGHNARLQLRRCTHHFLETPL” the “soluble on expression in E. coli” value was “not soluble”. For “MAHHHHHHMNAVDAEYVEHHGVDNLIIPISVSEPKETKRGDYAYCVDVVVHTLLIKKCSRGHRLLEHLTEKLVTLSIEWIRSECGVQLLPRSCRIAGNPLYFDDTVDTPKSIASIIENAAELLQRKSNSSNSRKDEQDTIPDALNLRKAQVPESKQPLIREVISTPAIKKGFLVDGNARLYGPDGSSEGSSKAPDPLAHIPESLRERCRIIDTRNMEGLTASPAKTMKSVDKTANTHTSGTFVAPTSEPQGKDEANWARFSIERTGEKVIVRFLAPDSVSSLHDIDLSATKDTLEINGSVTQLPVPIVTDDVRAKFVKATRILVVTCLIDVS”, the “soluble on expression in E. coli” value was “not soluble”.
